Assay results from publication PMC4536996, “Molecular mechanisms of human IRE1 activation through dimerization and ligand binding” (Oncotarget, 2015).

Target: the molecule itself
Test: crystal structure; apo-hIRE1 (no nucleotide), hanging-drop vapor diffusion, 18-20% PEG3350, 0.2 M sodium malonate, Bis-Trispropane pH 6.5, 18°C; 2 molecules in the asymmetric unit

B1: cytoplasmic region of human IRE1 (residues 547-977) (domain or fragment, UniProt O75460 547-977, looked up)
chain: GSSPSLEQDDGDEETSVVIVGKISFCPKDVLGHGAEGTIVYRGMFDNRDVAVKRILPECFSFADREVQLLRESDEHPNVIRYFCTEKDRQFQYIAIELCAATLQEYVEQKDFAHLGLEPITLLQQTTSGLAHLHSLNIVHRDLKPHNILISMPNAHGKIKAMISDFGLCKKLAVGRHSFSRRSGVPGTEGWIAPEMLSEDCKENPTYTVDIFSAGCVFYYVISEGSHPFGKSLQRQANILLGACSLDCLHPEKHEDVIARELIEKMIAMDPQKRPSAKHVLKHPFFWSLEKQLQFFQDVSDRIEKESLDGPIVKQLERGGRAVVKMDWRENITVPLQTDLRKFRTYKGGSVRDLLRAMRNKKHHYRELPAEVRETLGSLPDDFVCYFTSRFPHLLAHTYRAMELCSHERLFQPYYFHEPPEPQPPVTPDAL
  stoichiometry N: 2
